Experimental data as given in patent US20190358295A1.
Each block holds one molecule with its values, some of them ahead of it.

Columns and labels:
[1] = target: Mst1r (macrophage stimulating 1 receptor/RON kinase) on mouse erythroid progenitor cells (mouse) (UniProt Q62190); test: cell-based or functional assay
[2] = target: IL-17Ra on mouse bone marrow erythroid progenitor cells (mouse) (UniProt Q60943); test: cell-based or functional assay
Chain of UniProt Q60943 (Q60943 32-864): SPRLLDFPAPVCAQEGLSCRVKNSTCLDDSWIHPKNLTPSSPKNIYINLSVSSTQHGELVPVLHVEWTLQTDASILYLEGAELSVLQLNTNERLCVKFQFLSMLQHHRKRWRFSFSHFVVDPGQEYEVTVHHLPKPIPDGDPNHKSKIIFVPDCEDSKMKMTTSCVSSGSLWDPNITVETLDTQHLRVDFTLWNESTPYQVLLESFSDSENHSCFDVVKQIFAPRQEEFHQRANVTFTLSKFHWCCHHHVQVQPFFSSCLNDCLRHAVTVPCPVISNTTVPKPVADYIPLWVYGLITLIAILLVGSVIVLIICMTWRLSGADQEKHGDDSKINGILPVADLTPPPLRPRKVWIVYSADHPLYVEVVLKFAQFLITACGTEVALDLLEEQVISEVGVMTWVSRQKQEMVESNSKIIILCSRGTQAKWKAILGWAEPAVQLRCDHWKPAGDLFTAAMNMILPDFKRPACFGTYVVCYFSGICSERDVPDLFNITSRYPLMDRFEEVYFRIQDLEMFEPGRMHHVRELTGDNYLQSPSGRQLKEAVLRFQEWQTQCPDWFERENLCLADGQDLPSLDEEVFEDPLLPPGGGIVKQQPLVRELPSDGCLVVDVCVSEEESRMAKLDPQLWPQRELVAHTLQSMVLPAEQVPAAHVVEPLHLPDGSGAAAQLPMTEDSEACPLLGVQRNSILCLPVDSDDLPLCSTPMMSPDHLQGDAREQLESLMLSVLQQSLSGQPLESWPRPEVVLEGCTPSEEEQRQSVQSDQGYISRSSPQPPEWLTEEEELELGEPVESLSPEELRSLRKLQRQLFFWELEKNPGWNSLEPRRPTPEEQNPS

Chain of UniProt Q62190 (Q62190 24-1378): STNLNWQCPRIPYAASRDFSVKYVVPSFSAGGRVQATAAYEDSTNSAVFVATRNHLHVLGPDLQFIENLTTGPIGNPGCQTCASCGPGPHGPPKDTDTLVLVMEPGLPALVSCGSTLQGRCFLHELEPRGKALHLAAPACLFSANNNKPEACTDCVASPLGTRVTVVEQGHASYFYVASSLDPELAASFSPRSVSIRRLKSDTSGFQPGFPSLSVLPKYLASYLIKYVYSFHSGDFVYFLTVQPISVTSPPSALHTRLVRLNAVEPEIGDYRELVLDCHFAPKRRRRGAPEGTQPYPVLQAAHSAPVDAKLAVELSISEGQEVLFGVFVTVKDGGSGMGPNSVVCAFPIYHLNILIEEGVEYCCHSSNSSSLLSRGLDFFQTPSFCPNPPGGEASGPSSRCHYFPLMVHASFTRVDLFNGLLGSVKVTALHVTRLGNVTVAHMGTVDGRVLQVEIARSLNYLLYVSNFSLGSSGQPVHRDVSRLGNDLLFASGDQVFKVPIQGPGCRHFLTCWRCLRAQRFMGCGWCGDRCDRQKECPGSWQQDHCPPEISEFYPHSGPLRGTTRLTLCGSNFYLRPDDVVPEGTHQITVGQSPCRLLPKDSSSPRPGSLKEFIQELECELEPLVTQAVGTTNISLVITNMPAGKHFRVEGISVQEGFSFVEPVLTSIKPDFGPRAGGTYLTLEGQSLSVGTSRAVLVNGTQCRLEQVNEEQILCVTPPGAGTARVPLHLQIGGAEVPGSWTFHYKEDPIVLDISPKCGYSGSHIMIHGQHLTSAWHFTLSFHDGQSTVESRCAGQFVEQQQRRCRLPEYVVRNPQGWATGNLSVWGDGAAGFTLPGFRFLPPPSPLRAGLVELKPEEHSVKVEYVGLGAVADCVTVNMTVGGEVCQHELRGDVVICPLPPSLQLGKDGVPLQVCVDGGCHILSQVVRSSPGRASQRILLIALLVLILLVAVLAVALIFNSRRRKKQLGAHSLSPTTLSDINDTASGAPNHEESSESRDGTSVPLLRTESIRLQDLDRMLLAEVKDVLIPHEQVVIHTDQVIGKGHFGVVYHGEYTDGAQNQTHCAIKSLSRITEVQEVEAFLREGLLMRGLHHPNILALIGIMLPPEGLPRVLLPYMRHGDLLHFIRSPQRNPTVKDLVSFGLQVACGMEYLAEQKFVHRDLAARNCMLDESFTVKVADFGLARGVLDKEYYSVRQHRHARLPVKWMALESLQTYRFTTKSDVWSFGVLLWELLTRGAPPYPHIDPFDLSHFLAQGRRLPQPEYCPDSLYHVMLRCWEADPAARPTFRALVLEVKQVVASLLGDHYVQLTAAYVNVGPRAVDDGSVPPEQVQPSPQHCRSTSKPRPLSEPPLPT

FL CFU-e colony formation at mildly elevated Epo (50 mU/ml) [1]: > 2 fold
Molecule: MSP/MST1 (R&D systems; CAT #6244-MS-025) (from UniProt P26928 19-716) (ligand)

adult BM CFU-e colony formation at lower Epo (50 mU/ml) [2]: 4 fold | adult BM CFU-e colony formation at maximal levels of Epo [2]: 50%
B1: Recombinant Murine IL17 (IL-17A) (PeproTech) (ligand, UniProt Q62386 26-158, looked up)
chain: AAIIPQSSACPNTEAKDFLQNVKVNLKVFNSLGAKVSSRRPSDYLNRSTSPWTLHRNEDPDRYPSVIWEAQCRHQRCVNAEGKLDHHMNSVLIQQEILVLKREPESCPFTFRVEKMLVGVGCTCVASIVRQAA
